# US20190023748A1 (NAVIGEN, published 2019)
# Bridge positions count the residues as written; N and C are the ends. Square brackets hold non-standard residues; d marks the D form. Primed or numbered codes have the meaning given here. PEG4′ = not defined here
# B1: CPT31 (cholesterol-PIE12-2-trimer with PEG32 fourth-arm spacer) (peptide)
# peptide: Ac-[dH][dP][dC][dD][dY][dP][dE][dW][dQ][dW][dL][dC][dE][dL]G[PEG4′]K-NH2
# modifications: disulfide 3-12 (inferred); not fully specified (some residues); numbers in words are those of the source; also: PIE12-2 trimer on scaffold, fourth arm PEG28 + PEG4 with cholesteryl carbamate
# Columns and labels:
# Experiment in all cases: cell-based or functional assay
# [1] = biological target: HIV-1 gp41 of isolate 873 (clade B) (HIV-1 isolate 873)
# [2] = biological target: HIV-1 gp41 of isolate TZA246 (clade C) (HIV-1 isolate TZA246)
# [3] = biological target: HIV-1 gp41 of isolate CAM0002 (AG) (HIV-1 isolate CAM0002)
# [4] = biological target: HIV-1 gp41 of isolate 92UG029 (clade A) (HIV-1 isolate 92UG029)
# [5] = biological target: HIV-1 gp41 of isolate US4/GS007 (clade B) (HIV-1 isolate US4/GS007)
# [6] = biological target: HIV-1 gp41 of isolate TZBD9/11 (clade C) (HIV-1 isolate TZBD9/11)
# [7] = biological target: HIV-1 gp41 of isolate TZA68 (clade C) (HIV-1 isolate TZA68)
# [8] = biological target: HIV-1 gp41 of isolate NP1695 (AE) (HIV-1 isolate NP1695)
# [9] = biological target: HIV-1 gp41 of isolate KNH1209 (clade A) (HIV-1 isolate KNH1209)
# [10] = biological target: HIV-1 gp41 of isolate CAM1475MV (AG) (HIV-1 isolate CAM1475MV)
# [11] = biological target: HIV-1 gp41 of isolate NP1525 (AE) (HIV-1 isolate NP1525)
# [12] = biological target: HIV-1 gp41 of isolate SM145/GS016 (clade C) (HIV-1 isolate SM145/GS016)
# [13] = biological target: HIV-1 gp41 of isolate MN/H9 (clade B) (HIV-1 isolate MN/H9)
# [14] = biological target: HIV-1 gp41 of isolate DJ263/GS003 (AG) (HIV-1 isolate DJ263/GS003)
# [15] = biological target: HIV-1 gp41 of isolate NI1046 (AE) (HIV-1 isolate NI1046)
# [16] = biological target: HIV-1 gp41 of isolate CAM0008 (AG) (HIV-1 isolate CAM0008)
# [17] = biological target: HIV-1 gp41 of isolate CM235/GS020 (AE) (HIV-1 isolate CM235/GS020)
# [18] = biological target: HIV-1 gp41 of isolate NKU3006 (clade D) (HIV-1 isolate NKU3006)
# [19] = biological target: HIV-1 gp41 of isolate SE364/GS015 (clade C) (HIV-1 isolate SE364/GS015)
# [20] = biological target: HIV-1 gp41 of isolate KNH1088 (clade A) (HIV-1 isolate KNH1088)
# [21] = biological target: HIV-1 gp41 of isolate KNH1207 (clade A) (HIV-1 isolate KNH1207)
# [22] = biological target: HIV-1 gp41 of isolate 55815 (AG) (HIV-1 isolate 55815)
# [23] = biological target: HIV-1 gp41 of isolate 93RW024 (clade A) (HIV-1 isolate 93RW024)
# [24] = biological target: HIV-1 gp41 of isolate 93UG065 (clade D) (HIV-1 isolate 93UG065)
# [25] = biological target: HIV-1 gp41 of isolate KNH1135 (clade A) (HIV-1 isolate KNH1135)
# [26] = biological target: HIV-1 gp41 of isolate Ba-L (clade B) (HIV-1 isolate Ba-L)
# [27] = biological target: HIV-1 gp41 of isolate A08483M1 (clade D) (HIV-1 isolate A08483M1)
# [28] = biological target: HIV-1 gp41 of isolate KER2008 (clade A) (HIV-1 isolate KER2008)
# [29] = biological target: HIV-1 gp41 of isolate CAM1970LE (AG) (HIV-1 isolate CAM1970LE)
# [30] = biological target: HIV-1 gp41 of isolate CM244 (AE) (HIV-1 isolate CM244)
binder,measurement,setting,value
B1,1 nM inhibition,[1],93.6%
same,10 nM inhibition,[1],98.7%
same,1 nM inhibition,[2],98.3%
same,10 nM inhibition,[2],98.4%
same,1 nM inhibition,[3],95.6%
same,10 nM inhibition,[3],99.7%
same,1 nM inhibition,[4],95.2%
same,10 nM inhibition,[4],98.2%
same,1 nM inhibition,[5],91.1%
same,10 nM inhibition,[5],98.7%
same,1 nM inhibition,[6],84.7%
same,10 nM inhibition,[6],85.4%
same,1 nM inhibition,[7],97.7%
same,10 nM inhibition,[7],99.7%
same,1 nM inhibition,[8],95.7%
same,10 nM inhibition,[8],97%
same,1 nM inhibition,[9],94.3%
same,10 nM inhibition,[9],95.2%
same,1 nM inhibition,[10],98.3%
same,10 nM inhibition,[10],98.8%
same,1 nM inhibition,[11],98.8%
same,10 nM inhibition,[11],99.3%
same,1 nM inhibition,[12],30.6%
same,10 nM inhibition,[12],75.7%
same,1 nM inhibition,[13],99.3%
same,10 nM inhibition,[13],100%
same,1 nM inhibition,[14],96.7%
same,10 nM inhibition,[14],99.2%
same,1 nM inhibition,[15],99.1%
same,10 nM inhibition,[15],99.7%
same,1 nM inhibition,[16],96.8%
same,10 nM inhibition,[16],99.7%
same,1 nM inhibition,[17],81.8%
same,10 nM inhibition,[17],98.7%
same,1 nM inhibition,[18],97.2%
same,10 nM inhibition,[18],99.8%
same,1 nM inhibition,[19],91.6%
same,10 nM inhibition,[19],97.7%
same,1 nM inhibition,[20],98.5%
same,10 nM inhibition,[20],99.6%
same,1 nM inhibition,[21],92.1%
same,10 nM inhibition,[21],98.2%
same,1 nM inhibition,[22],98.8%
same,10 nM inhibition,[22],99.5%
same,1 nM inhibition,[23],97%
same,10 nM inhibition,[23],99.3%
same,1 nM inhibition,[24],93.7%
same,10 nM inhibition,[24],94.4%
same,1 nM inhibition,[25],80.6%
same,10 nM inhibition,[25],83.4%
same,1 nM inhibition,[26],96.9%
same,10 nM inhibition,[26],99.8%
same,1 nM inhibition,[27],69.2%
same,10 nM inhibition,[27],72.3%
same,1 nM inhibition,[28],84.1%
same,10 nM inhibition,[28],85.3%
same,1 nM inhibition,[29],97.3%
same,10 nM inhibition,[29],98.5%
same,1 nM inhibition,[30],95.4%
same,10 nM inhibition,[30],99.5%
